Values belong to the binder of their own block, whether it stands above or below them.
What was measured:
[1] = biological target: T1, Tim-4 on CHO or HEK293 transfectants (Tim-4-pDisplay construct, N-terminal HA tag, Tim-4 signal sequence … (mouse, UniProt Q6U7R4 30-343)); assay: flow cytometry, cell surface staining of CHO transfectants (FIG. 14A)
T1 construct: also called Tim-4 transfectants; CHO-Tim-4; not shown: N-terminal HA tag of the pDisplay vector
T1 sequence: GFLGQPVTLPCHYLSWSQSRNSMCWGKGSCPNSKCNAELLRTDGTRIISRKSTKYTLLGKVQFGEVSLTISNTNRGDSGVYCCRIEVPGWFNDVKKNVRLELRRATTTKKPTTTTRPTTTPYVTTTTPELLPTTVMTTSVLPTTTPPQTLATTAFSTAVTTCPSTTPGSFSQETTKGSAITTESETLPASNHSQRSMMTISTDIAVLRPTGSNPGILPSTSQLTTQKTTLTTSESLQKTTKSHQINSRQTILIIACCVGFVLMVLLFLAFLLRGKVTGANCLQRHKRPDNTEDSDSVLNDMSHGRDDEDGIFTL

[2] = biological target: T2, Tim-3 on CHO-Tim-3 transfectants (UniProt Q8VIM0 20-281, limits assumed); assay: flow cytometry, cell surface staining of CHO transfectants
T2 construct: whole, on cells

[3] = biological target: T1, Tim-4 on CHO or HEK293 transfectants …; assay: as above
[4] = biological target: T3, Tim-2 on CHO-Tim-2 transfectants (mouse, UniProt Q8R183 22-305); assay: as above
T3 sequence: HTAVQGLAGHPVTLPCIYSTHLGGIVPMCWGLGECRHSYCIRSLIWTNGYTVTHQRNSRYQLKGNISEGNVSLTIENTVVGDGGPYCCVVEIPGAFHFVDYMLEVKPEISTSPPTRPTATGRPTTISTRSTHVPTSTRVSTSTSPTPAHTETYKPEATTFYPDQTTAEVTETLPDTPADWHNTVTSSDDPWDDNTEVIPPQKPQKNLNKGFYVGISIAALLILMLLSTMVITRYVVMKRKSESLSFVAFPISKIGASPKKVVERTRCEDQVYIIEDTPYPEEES

[5] = biological target: T4, Tim-1 on CHO-Tim-1 transfectants (CHO-K1 cells transfected with pEF6 containing murine Tim-1 cDNA) (murine, UniProt Q5QNS5 22-305); assay: as above
T4 sequence: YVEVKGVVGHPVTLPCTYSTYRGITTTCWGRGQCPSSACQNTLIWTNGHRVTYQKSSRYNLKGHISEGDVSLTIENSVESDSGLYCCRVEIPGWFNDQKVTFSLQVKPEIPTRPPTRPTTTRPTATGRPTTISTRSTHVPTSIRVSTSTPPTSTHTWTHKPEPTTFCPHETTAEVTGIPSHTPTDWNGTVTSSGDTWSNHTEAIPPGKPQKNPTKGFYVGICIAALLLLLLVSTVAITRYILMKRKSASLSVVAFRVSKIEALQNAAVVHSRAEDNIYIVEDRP

T2 sequence (Q8VIM0 20-281 limits assumed): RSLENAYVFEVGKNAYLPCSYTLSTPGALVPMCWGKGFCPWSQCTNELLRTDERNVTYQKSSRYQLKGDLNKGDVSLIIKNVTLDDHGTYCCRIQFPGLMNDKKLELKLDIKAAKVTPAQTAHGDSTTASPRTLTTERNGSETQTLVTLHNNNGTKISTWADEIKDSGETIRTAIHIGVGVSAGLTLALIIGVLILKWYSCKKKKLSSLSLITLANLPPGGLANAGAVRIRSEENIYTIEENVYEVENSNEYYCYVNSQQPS

binding result [1]: binds
B1: Tim-1-Ig containing only the Tim-1 IgV domain (Fc fusion)
chain: SYVEVKGVVGHPVTLPCTYSTYRGITTTCWGRGQCPSSACQNTLIWTNGHRVTYQKSSRYNLKGHISEGDVSLTIENSVESDSGLYCCRVEIPGWFNDQKVTFSLQVKP
notes: also called Tim-1-Ig (IgV only); Tim-1-Ig fusion polypeptide (containing only the Tim-1 IgV domain); not shown: Ig Fc tail

binding result [2]: no binding
binding result [3]: no binding
binding result [4]: no binding
B2: Tim-4-Ig (soluble Ig fusion polypeptide: extracellular IgV and mucin domains of Tim-4 fused to a human IgG1 Fc tail) (Fc fusion)
chain: FLGQPVTLPCHYLSWSQSRNSMCWGKGSCPNSKCNAELLRTDGTRIISRKSTKYTLLGKVQFGEVSLTISNTNRGDSGVYCCRIEVPGWFNDVKKNVRLELRRATTTKKPTTTTRPTTTPYVTTTTPELLPTTVMTTSVLPTTTPPQTLATTAFSTAVTTCPSTTPGSFSQETTKGSAITTESETLPASNHSQRSMMTISTDIAVLRPTGSNPGILPSTSQLTTQKTTLTTSESLQKTTKSHQINSRQTIL
notes: Made by Chimerigen; also called tim-4:Ig fusion; not shown: human IgG1 Fc tail

binding result [1]: binds
binding result [2]: no binding
binding result [5]: no binding
binding result [4]: no binding
B3: Tim-1-Ig, full-length (Tim-1 extracellular IgV and mucin domains fused to human IgG1 Fc tail) (Fc fusion)
chain: YVEVKGVVGHPVTLPCTYSTYRGITTTCWGRGQCPSSACQNTLIWTNGHRVTYQKSSRYNLKGHISEGDVSLTIENSVESDSGLYCCRVEIPGWFNDQKVTFSLQVKPEIPTRPPTRPTTTRPTATGRPTTISTRSTHVPTSIRVSTSTPPTSTHTWTHKPEPTTFCPHETTAEVTGIPSHTPTDWNGTVTSSGDTWSNHTEAIPPGKPQKNPTKG
notes: Only the extracellular IgV and mucin part stood in the assay; also called Tim1/Fc; full-length Tim-1-Ig; not shown: human IgG1 Fc tail

binding result [2]: no binding
binding result [3]: no binding
binding result [5]: no binding
binding result [4]: no binding
B4: Tim-2-Ig (Tim-2 extracellular IgV and mucin domains fused to human IgG1 Fc tail) (Fc fusion)
chain: HTAVQGLAGHPVTLPCIYSTHLGGIVPMCWGLGECRHSYCIRSLIWTNGYTVTHQRNSRYQLKGNISEGNVSLTIENTVVGDGGPYCCVVEIPGAFHFVDYMLEVKPEISTSPPTRPTATGRPTTISTRSTHVPTSTRVSTSTSPTPAHTETYKPEATTFYPDQTTAEVTETLPDTPADWHNTVTSSDDPWDDNTEVIPPQKPQKNLNKG
notes: Only the extracellular IgV and mucin part stood in the assay; also called Tim2/Fc; not shown: human IgG1 Fc tail

— patent US20110045002A1 (BRIGHAM AND WOMEN S HOSPITAL, published 2011)
